Reference: KR20160103767A (dated 2016)
One block for each binder: values may come before it.

Molecular target: T1, 재조합 인간 TFPI (Recombinant human Tissue Factor Pathway Inhibitor, full-form, Cat.No.TFPI-875H, Creative Biomart) (human, UniProt P10646 29-304)
T1 sequence: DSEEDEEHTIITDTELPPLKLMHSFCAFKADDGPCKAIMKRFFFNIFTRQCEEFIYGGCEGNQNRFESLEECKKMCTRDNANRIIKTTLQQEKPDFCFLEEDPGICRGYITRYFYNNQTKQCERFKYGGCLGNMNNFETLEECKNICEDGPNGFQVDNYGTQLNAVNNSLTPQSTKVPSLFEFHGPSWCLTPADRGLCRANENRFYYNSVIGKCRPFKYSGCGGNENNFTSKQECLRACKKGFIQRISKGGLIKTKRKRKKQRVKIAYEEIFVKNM
Assay: cell-based or functional assay

FXa activity assay: TFPI inhibition at 10nM antibody, relative to positive control: ~64% | FXa activity assay: TFPI inhibition at 40nM antibody, relative to positive control: 91% | TF/FVIIa/FXa complex assay: TFPI inhibition at 50nM antibody, relative to positive control (no antibody, no TFPI): ~87% | TF/FVIIa/FXa complex assay: TFPI inhibition at 100nM antibody, relative to positive control (no antibody, no TFPI): 100%
B1: 클론 T308 (anti-TFPI chimeric antibody) (antibody, V domains shown)
VH: EVKLVESGGGLVKPGGSLKLSCAASGFTFSNYPMSWVRQTPEKRLEWVATISNSGSYTYYPDSVKGRFTISRDNAKNTLYLQMNSLRSEDTAMYYCARQVYGNYEDFDYWGQGTTLTVSS
VL: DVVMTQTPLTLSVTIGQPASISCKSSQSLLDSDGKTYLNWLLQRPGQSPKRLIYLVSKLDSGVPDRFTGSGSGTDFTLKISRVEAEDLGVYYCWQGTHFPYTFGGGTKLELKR

FXa activity assay: TFPI inhibition (10nM comparison), relative to positive control (mAb2021): 77% | FXa activity assay: TFPI inhibition at 10nM antibody, relative to positive control: 72% | FXa activity assay: TFPI inhibition at 10nM antibody, relative to positive control (mAb2021): 78.4% | FXa activity assay: TFPI inhibition at 40nM antibody, relative to positive control: 89% | TF/FVIIa/FXa complex assay: TFPI inhibition at 50nM antibody, relative to positive control (no antibody, no TFPI): 100% | TF/FVIIa/FXa complex assay: TFPI inhibition at 100nM antibody, relative to positive control (no antibody, no TFPI): 100% | TF/FVIIa/FXa complex assay: TFPI inhibition, relative to positive control (no antibody, no TFPI): 100%
B2: 클론 T417 (anti-TFPI chimeric antibody) (antibody, V domains shown)
VH: EVHLVESGGDLVKPGGSLKLSCAASGFTFSSYAMSWVRQTPDKRLEWVATITTGGSYTYYPDSVKGRFTISRDNAKNTLYLQMSSLKSEDTAMYYCARQDGNFLMDYWGQGTTVTVSS
VL: not shown
